# Results reported in publication PMC5059718, “Leukocyte trafficking-associated vascular adhesion protein 1 is expressed and functionally active in atherosclerotic plaques” (Scientific Reports, 2016).
# Bridge positions count the residues as written; N and C are the ends. Peptide text beside a SMILES is read from it. * marks the point of attachment. DOTA = O=C(O)CN1CCN(CC(=O)O)CCN(CC(=O)*)CCN(CC(=O)O)CC1; AEEA = NCCOCCOCC(=O)O
# Key:
# VAP-1 [1] = biological target: T1, VAP-1 (Mus musculus, UniProt O70423); assay: 4-week VAP-1 inhibitor treatment: plaque macrophages and intima-to-media ratio; type: in vivo, mouse (LDLR−/−ApoB100/100)
# T1 construct: VAP-1 was expressed on endothelial cells lining inflamed atherosclerotic lesions; from tissue; host or cells: living mice (LDLR-/-ApoB100/100, Jackson strain #003000; C57BL/6N controls); aorta, atherosclerotic plaque endothelium, adipocytes
# T1 sequence (O70423 1-765): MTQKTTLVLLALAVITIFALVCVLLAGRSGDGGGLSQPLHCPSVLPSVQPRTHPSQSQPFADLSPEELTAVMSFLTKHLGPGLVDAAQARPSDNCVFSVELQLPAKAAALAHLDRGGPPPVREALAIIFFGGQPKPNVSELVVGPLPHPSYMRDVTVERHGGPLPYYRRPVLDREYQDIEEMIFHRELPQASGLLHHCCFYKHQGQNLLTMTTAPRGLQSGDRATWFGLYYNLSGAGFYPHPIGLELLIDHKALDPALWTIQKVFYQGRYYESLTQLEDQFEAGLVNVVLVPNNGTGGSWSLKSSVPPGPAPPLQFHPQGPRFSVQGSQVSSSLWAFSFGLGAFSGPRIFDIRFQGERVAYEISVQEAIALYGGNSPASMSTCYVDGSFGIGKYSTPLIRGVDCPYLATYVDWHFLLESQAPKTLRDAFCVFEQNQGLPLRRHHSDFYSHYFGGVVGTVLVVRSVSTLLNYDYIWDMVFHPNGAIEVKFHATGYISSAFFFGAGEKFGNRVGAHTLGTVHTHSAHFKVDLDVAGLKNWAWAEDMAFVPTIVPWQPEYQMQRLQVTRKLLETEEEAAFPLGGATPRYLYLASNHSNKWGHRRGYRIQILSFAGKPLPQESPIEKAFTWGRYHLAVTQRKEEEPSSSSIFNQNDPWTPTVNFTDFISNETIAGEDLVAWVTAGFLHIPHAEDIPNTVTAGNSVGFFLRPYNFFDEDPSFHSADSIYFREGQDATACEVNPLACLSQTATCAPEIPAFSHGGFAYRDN
# Method: (§1) The second phase examined the role of VAP-1 in atherosclerotic plaques. Twenty-five LDLR^−/−ApoB^100/100 mice were treated with a VAP-1 inhibitor (LJP1586, Z-3-fluoro-2-(4-methoxybenzyl)allylamine hydrochloride; a kind gift from M. Linnik, La Jolla Pharmaceuticals, San Diego, CA, USA), or with saline. At the age of 2 months, mice were shifted to a high-fat diet for 2 months prior to the start of 4-week treatment, during which they were on normal chow. All mice were housed in an animal facility under standard conditions (12 h light/dark cycle) and allowed access to food and water ad libitum.
# (§2) During the 4 week treatment period, LDLR^−/−ApoB^100/100 mice received thrice-weekly intraperitoneal (i.p.) injections of a small molecular VAP-1 inhibitor, LJP1586 (Z-3-fluoro-2-(4-methoxybenzyl)allylamine hydrochloride; 0.5 mg/mL diluted in PBS; a kind gift from M. Linnik, La Jolla Pharmaceuticals, San Diego, CA, USA) at a dose of 5 mg/kg. Mice injected with the physiological saline alone (200 μL) served as negative controls. After treatment, all mice were sacrificed and the hearts were collected, formalin-fixed, and paraffin-embedded. Tissues were then cut transversely into 5 μm sections at the level of the coronary ostia. The areas of intima and media were outlined in sections stained with Movat’s pentachrome, and the intima-to-media ratio for each mouse was determined with ImageJ as described previously. Adjacent sections were stained with an anti-mouse Mac-3 antibody to detect activated macrophages in the intima as described above. Sections of aortic ostium were used to determine the area of plaque occupied by macrophages in each mouse because the ostium is easily located due to the presence of valves; it is therefore the most reliable place to compare plaque deposition in individual mice.
# [2] = Body weight and plasma lipids after 4-week VAP-1 inhibitor treatment; type: in vivo, mouse (LDLR−/−ApoB100/100); conditions: mean ± SD
# Method: as §1
# as §2, with “Sections of aortic ostium were used to determine the area of plaque occupied by macrophages in each mouse because the ostium is easily located due to the presence of valves; it is therefore the most reliable place to compare plaque deposition in individual mice.” left out
# Total cholesterol (CHOD-PAP 1489232 kit; Roche Diagnostics GmbH, Mannheim, Germany), choline-containing phospholipids (990–54009; Wako Chemicals GmbH, Neuss, Germany and/or Diagnostic Systems, Holzheim, Germany), and triglycerides (GPO-PAP 1488872 kit; Roche Diagnostics GmbH) were measured using fully enzymatic methods.
# VAP-1 [3] = conditions: mouse VAP-1; cited from earlier work
# Text: (§3) The adhesive function of VAP-1 can be inhibited by […]. Inhibiting VAP-1 reduces the migration of lymphocytes, granulocytes, and monocytes into inflamed tissues; it also reduces pathological angiogenesis in many animal models by abrogating monocyte/macrophage infiltration.
# [4] = test system: broad panel of receptors and enzymes, including monoamine oxidases A and B; conditions: cited from earlier work
# Text: as §3
# VAP-1 [5] = biological target: T1, VAP-1; assay: in vivo; parameters: species or system mouse (LDLR−/−ApoB100/100; C57BL/6N); conditions: mouse
# Method: (§4) Mice (LDLR^−/−ApoB^100/100, n = 22; C57BL/6N, n = 20) under isoflurane anesthesia were i.v. injected with [^68Ga]DOTA-Siglec-9 (19 ± 5 MBq). […] The thoracic aorta was excised and rinsed in saline to remove blood. Aorta, blood, heart, and femoral muscle were weighed, and radioactivity was measured in a gamma counter (Triathler 3″, Hidex, Turku, Finland). Hearts were preserved in formalin for further characterization of plaques in the aortic root. The ex vivo biodistribution results were expressed as a percentage of the injected radioactivity dose per gram of tissue (%IA/g). The radioactivity remaining in the tail was compensated for. […] Mice (n = 5) then received an injection of [^68Ga]DOTA-Siglec-9 (22 ± 9 MBq) and were then subjected to subsequent ex vivo biodistribution and autoradiography analyses.
# VAP-1 [6] = test system: T2, VAP-1; assay: in vivo; parameters: species or system mouse (LDLR−/−ApoB100/100; C57BL/6N); conditions: total radioactivity
# T2 construct: VAP-1 was expressed on endothelial cells lining inflamed atherosclerotic lesions; from tissue; host or cells: living mice (LDLR-/-ApoB100/100, Jackson strain #003000; C57BL/6N controls); aorta, atherosclerotic plaque endothelium, adipocytes
# Method: as §4
# VAP-1 [7] = biological target: T1, VAP-1; parameters: species or system mouse (LDLR−/−ApoB100/100; C57BL/6N); conditions: in vivo
# Method: Mice (n = 5) then received an injection of [^68Ga]DOTA-Siglec-9 (22 ± 9 MBq) and were then subjected to subsequent ex vivo biodistribution and autoradiography analyses.
# The distribution of [^68Ga]DOTA-Siglec-9 in the aorta was examined in more detail using autoradiography, as described previously. Briefly, after gamma counting, excised aortas were frozen in isopentane, and sequential longitudinal cryosections (20 and 8 μm) were cut using a cryomicrotome at −15 °C. Sections were then thaw-mounted onto microscope slides. […]
# The 20 μm sections were stained with hematoxylin and eosin and scanned with a Pannoramic 250 Flash slide scanner (3DHISTECH Ltd.), and morphology was examined using Pannoramic Viewer 1.15 software (3DHISTECH Ltd.). After carefully superimposing the autoradiographs and hematoxylin-eosin staining images, the concentration of ^68Ga-radioactivity was measured in the following ROI: 1) plaques (excluding media); 2) normal vessel wall (no lesion formation); and 3) adventitia (mainly adipose tissue around the aorta). The results were expressed as count densities (photostimulated luminescence per square millimeter; PSL/mm^2) using Tina 2.1 software (Raytest Isotopemessgeräte GmbH, Straubenhardt, Germany). […] In total, […] (417 in plaques, 478 in normal vessel walls, and 347 in adventitia) were analyzed in 27 atherosclerotic and 20 control mice. […]
"reduction of Mac-3-positive macrophages in atherosclerotic plaques compared with the saline group (VAP-1 [1]; LJP1586 5 mg/kg i.p. thrice weekly for 4 weeks, P < 0.0001) [%]","intima-media ratio (plaque size) (VAP-1 [1]; LJP1586 5 mg/kg i.p. thrice weekly for 4 weeks, n = 15, aortic ostium, mean ± SD (saline 1.5 ± 0.6; P = 0.15))","areal percentage of the aortic plaque occupied by Mac-3-positive macrophages (VAP-1 [1]; LJP1586 5 mg/kg i.p. thrice weekly for 4 weeks, n = 15, aortic ostium, mean ± SD (saline 15% ± 5.1%))","effect on plaque size, as determined by the intima-media ratio (VAP-1 [1]; LJP1586 for 4 weeks vs saline)",Structure (SMILES),"Body weight ([2]; LJP1586-treated LDLR−/−ApoB100/100 mice (n = 15), P = 0.065 vs saline) [g]","Weight, female ([2]; LJP1586 group, female LDLR−/−ApoB100/100 mice (n = 8)) [g]","Weight, male ([2]; LJP1586 group, male LDLR−/−ApoB100/100 mice (n = 7)) [g]",IC50 (VAP-1 [3]) [nM],selectivity for VAP-1 [4],aorta-to-blood ratio on prolonging the accumulation time-point to 90 min (VAP-1 [5]),aorta-to-muscle ratio (VAP-1 [5]),aorta-to-muscle ratio with competition (VAP-1 [5]),"tissue uptake at 25 min (VAP-1 [6]; C57BL/6N, mouse, iv, uptake by the whole aorta) [%ID/g]","tissue uptake at 25 min (VAP-1 [6]; LDLR−/−ApoB100/100, mouse, iv, radioactivity concentration in the blood) [%ID/g]","tissue uptake at 25 min (VAP-1 [6]; LDLR−/−ApoB100/100, mouse, iv, uptake by the whole aorta) [%ID/g]","tissue uptake at 25 min (VAP-1 [6]; LDLR−/−ApoB100/100, mouse, radioactivity concentration in the blood with competition) [%ID/g]","tissue uptake at 25 min (VAP-1 [6]; LDLR−/−ApoB100/100, mouse, uptake by the whole aorta with competition) [%ID/g]",Plaque-to-adventitia ratio (autoradiography) (VAP-1 [7]) [P < 0.0001],Plaque-to-wall ratio (autoradiography) (VAP-1 [7]) [P < 0.0001]
46,1.9 ± 0.8,8.2% ± 3.5%,no effect,"COc1ccc(C/C(=C/F)CN)cc1.Cl [LJP1586, Z-3-fluoro-2-(4-methoxybenzyl)allylamine hydrochloride]",28 ± 4.5,25 ± 1.9,33 ± 1.7,4,has been confirmed,–,–,–,–,–,–,–,–,–,–
–,–,–,–,"CC(C)C[C@@H]1NC(=O)CNC(=O)[C@H](CCCNC(=N)N)NC(=O)[C@H](Cc2c[nH]c3ccccc23)NC(=O)[C@H](CO)NC(=O)[C@H](CC(C)C)NC(=O)[C@H](CO)NC(=O)[C@H](CC(C)C)NC(=O)[C@H](CCCNC(=N)N)NC(=O)[C@H](C)NC(=O)[C@@H](NC(=O)COCCOCCNC(=O)CN2CCN(CC(=O)O)CCN(CC(=O)O)CCN(CC(=O)O)CC2)CSSC[C@@H](C(=O)N2CCC[C@H]2C(=O)N[C@@H](CO)C(=O)N[C@@H](CCCCN)C(=O)O)NC(=O)[C@H](CC(C)C)NC(=O)[C@H]([C@@H](C)O)NC1=O [[^68Ga]DOTA-Siglec-9, metal not drawn] ({DOTA-AEEA}-CARLSLSWRGLTLCPSK-OH; disulfide 1-14)",–,–,–,–,–,did not improve,1.7 ± 0.59,1.1 ± 0.38,0.46 ± 0.1,3 ± 1.3,0.83 ± 0.33,2.6 ± 0.9,0.48 ± 0.066,1.8 ± 0.35,2.1 ± 0.43
